These results are taken from patent US20240083986A1 (published 2024).

Numbering of substitutions follows the chain as printed. Names may count otherwise.

Assay [1] addresses T1, mutant Bet v 1-MMH (Betula verrucosa (European white birch, …)).
T1 construct: also called CHO produced recombinant Bet v 1 containing a S85A mutation with a C-terminal myc-myc hexahistidine tag
T1 chain: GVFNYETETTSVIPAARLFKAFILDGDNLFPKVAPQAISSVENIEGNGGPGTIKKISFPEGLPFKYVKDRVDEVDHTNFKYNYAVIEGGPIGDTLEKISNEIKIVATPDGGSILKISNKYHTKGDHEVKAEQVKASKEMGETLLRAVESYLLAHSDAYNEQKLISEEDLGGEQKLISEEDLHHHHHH
Put plainly: BLI Octet HTX, mutant Bet v 1-MMH captured on anti-Penta-His tips, 25C. Background: Biolayer interferometry detects binding as a change in optical thickness at a sensor tip.

The target in assay [2] is T2, Alder (Aln g 1, MyBiosource, Cat #MBS1041484) (Alder, UniProt P38948 2-160, limits assumed).
T2 construct: Bought reagent
T2 sequence (looked up): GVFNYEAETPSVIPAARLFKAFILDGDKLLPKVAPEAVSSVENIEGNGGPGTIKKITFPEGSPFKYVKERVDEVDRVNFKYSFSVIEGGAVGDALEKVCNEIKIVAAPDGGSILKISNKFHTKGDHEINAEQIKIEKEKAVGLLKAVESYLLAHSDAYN
Put plainly: SPR Biacore, 25C.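 Note: binding of related allergens to purified monoclonal anti-Bet v 1 antibodies by surface plasmon resonance in HEPES-buffered saline pH 7.4, kinetics fitted to a 1:1 model with mass transport.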

Assay [3] addresses T3, Celery (Api g 1, MyBiosource, Cat #MBS1171376) (Celery, UniProt P49372 1-154, limits assumed).
T3 construct: Bought reagent
T3 sequence (looked up): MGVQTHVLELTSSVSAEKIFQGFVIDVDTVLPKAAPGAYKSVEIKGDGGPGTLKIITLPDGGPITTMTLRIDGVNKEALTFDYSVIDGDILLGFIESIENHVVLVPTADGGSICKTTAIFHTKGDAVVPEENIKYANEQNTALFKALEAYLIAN
Nature of the assay: SPR Biacore, 25C.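 Note: binding of related allergens to purified monoclonal anti-Bet v 1 antibodies by surface plasmon resonance in HEPES-buffered saline pH 7.4, kinetics fitted to a 1:1 model with mass transport.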 A general note: Surface plasmon resonance follows binding to a sensor surface in real time, without labels.

Assay [4] has as its target T4, Apple (Mal d 1, MyBiosource, Cat #MBS1224919) (Apple, UniProt P43211 2-159, limits assumed).
T4 construct: Bought reagent
T4 sequence (looked up): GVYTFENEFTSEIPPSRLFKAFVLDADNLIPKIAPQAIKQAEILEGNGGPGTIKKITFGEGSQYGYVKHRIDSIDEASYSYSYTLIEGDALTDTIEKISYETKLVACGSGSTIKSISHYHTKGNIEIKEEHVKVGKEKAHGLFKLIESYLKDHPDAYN
Nature of the assay: SPR Biacore, 25C.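 Note: binding of related allergens to purified monoclonal anti-Bet v 1 antibodies by surface plasmon resonance in HEPES-buffered saline pH 7.4, kinetics fitted to a 1:1 model with mass transport.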

The target in assay [5] is T5, natural Bet v 1 (Indoor, Cat #NA-BV1-1) (Betula verrucosa (European white birch, …, UniProt P15494 2-160)).
T5 construct: Bought natural protein purified from birch pollen; also called nBet v 1
T5 sequence: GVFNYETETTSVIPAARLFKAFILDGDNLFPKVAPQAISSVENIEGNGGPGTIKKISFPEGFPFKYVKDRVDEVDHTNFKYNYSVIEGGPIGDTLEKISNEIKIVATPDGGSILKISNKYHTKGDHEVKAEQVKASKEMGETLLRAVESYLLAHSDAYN
Nature of the assay: SPR Biacore, mAb captured on anti-hFc, 37C.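 Note: purified anti-Bet v 1 monoclonal antibodies, HBS-ET running buffer pH 7.4, rate constants from 1:1 model fit with mass transport limitation, KD and t½ calculated from kinetic constants.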

Assay [6] concerns the target T5, natural Bet v 1 (Indoor, Cat #NA-BV1-1). Nature of the assay: SPR Biacore, mAb captured on anti-hFc, 25C.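 Note: rate constants from sensorgrams fitted to a 1:1 model with mass transport limitation, KD and t½ derived from kinetic constants, run in HBS-ET buffer at pH 7.4.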
Assay [7] addresses T6, mutant Bet v 1-MMH (Betula verrucosa (Betula pendula)).
T6 construct: CHO produced; also called recombinant mutant Bet v 1 with C-terminal myc-myc-hexahistidine tag
T6 chain: T1 chain
Nature of the assay: BLI Octet, mutant Bet v 1-MMH captured on anti-Penta-His tips.

Assay [8] deals with T7, European Hornbeam (Car b 1 isoform 1A & 1B, MyBiosource, Cat #MBS1200018) (European Hornbeam, UniProt P38949 2-160).
T7 construct: Bought reagent
T7 sequence (looked up): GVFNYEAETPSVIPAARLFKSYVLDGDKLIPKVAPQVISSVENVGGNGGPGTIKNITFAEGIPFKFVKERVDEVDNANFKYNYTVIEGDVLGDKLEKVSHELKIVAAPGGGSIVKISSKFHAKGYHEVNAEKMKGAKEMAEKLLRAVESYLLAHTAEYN
Put plainly: SPR Biacore, 25C.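 Note: binding of related allergens to purified monoclonal anti-Bet v 1 antibodies by surface plasmon resonance in HEPES-buffered saline pH 7.4, kinetics fitted to a 1:1 model with mass transport.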

The target of assay [9] is T5, natural Bet v 1 (Indoor, Cat #NA-BV1-1). Put plainly: cell-based or functional assay.
The target of assay [10] is T8, natural Bet v 1 (Betula verrucosa (Betula pendula), UniProt P15494 2-160).
T8 construct: bought natural protein (Indoor Biotechnologies #NA-BV1-1); also called nBet v 1; Biotinylated Bet v 1
T8 chain: T5 sequence with F62L
Nature of the assay: blocking ELISA, biotin nBet v 1 to captured IgE, donor 29718-MW. On the technique in general: ELISA stands for enzyme-linked immunosorbent assay.

For assay [11], the target named is T8, natural Bet v 1. Put plainly: dose-response blocking ELISA, biotin nBet v 1 to captured IgE, donor 25609-MS.
For assay [12], the target named is T8, natural Bet v 1. Put plainly: blocking ELISA, biotin nBet v 1 to captured IgE, donor 25299-RJ.
Assay [13] deals with T8, natural Bet v 1. Nature of the assay: blocking ELISA, biotin nBet v 1 to captured IgE, donor 25414-CW.
Assay [14] deals with T8, natural Bet v 1. Nature of the assay: blocking ELISA, biotin nBet v 1 to captured IgE, donor 25609-MS.
Assay [15] has as its target T8, natural Bet v 1. Nature of the assay: blocking ELISA, biotin nBet v 1 to captured IgE, donor 23939-MH.
The target in assay [16] is T8, natural Bet v 1. Put plainly: blocking ELISA, biotin nBet v 1 to captured IgE, donor 25340-RR.
Assay [17] concerns the target T8, natural Bet v 1. Nature of the assay: dose-response blocking ELISA, biotin nBet v 1 to captured IgE, donor 23939-MH.
Assay [18] addresses T8, natural Bet v 1. Nature of the assay: dose-response blocking ELISA, biotin nBet v 1 to captured IgE, donor 25340-RR.
In assay [19] the target is T8, natural Bet v 1. Nature of the assay: blocking ELISA, biotin nBet v 1 to captured IgE, donor 26532-CC.
Assay [20] concerns the target T8, natural Bet v 1. Nature of the assay: blocking ELISA, biotin nBet v 1 to captured IgE, donor 23035-BL.

For orientation: Kd means the free concentration of one partner at which half of the binding sites on the other are occupied at equilibrium, for simple one-to-one binding. Lower therefore signals tighter binding. The term koff denotes the rate constant with which the complex falls apart. By kon is commonly meant a measure of how fast the partners come together. Read a low kon as slow association. In general, t½ refers to the time in which the quantity being followed falls by half. Lower therefore signals fast loss.

B1: H4H16943P (antibody, human IgG4, V domains shown)
VH: EVQLVESGGGLVQPGGSLRLSCTASGFMSSMYWMSWVRQAPGKGLEWVSNIKQDGTEKNYVESVKGRFTISRDNAKNSLYLQINSLRGEDTAVYYCARDLYSSSSGYYYYGLDVWGQGTTVTVSS
VL: DIVMTQSPLSLPVTPGEPASISCRSSQSLLHSNKYNYLDWYLQKPGQSPQLLIYLSSNRASGVPDRFSGSGSGTEFTLKISRVEAEDVGIYYCMQALHTPLTFGGGTKVEIK
As for B1, the binding result in assay [1] is given as “no binding (tested: 50 µg/mL)”. Further, the binding result in assay [2] is “no binding (tested: 100 nM)”. The binding result in [3] is “no binding (tested: 100 nM)”. Further, in assay [4], the binding result was “no binding (tested: 100 nM)”. Moreover, in assay [5], the “100 nM natural Bet v 1 Bound (RU)” value stood at 88 RU, the Kd is 4.89 nM, the koff worked out at 0.00127 s⁻¹ and the kon stood at 260000 M⁻¹ s⁻¹. The same molecule yielded a t½ in assay [5] of 9.1 min. In addition, in [6], the “100 nM natural Bet v 1 Bound (RU)” value came out at 71 RU, the dissociation constant Kd came to 1.4 nM, the koff worked out at 0.00023 s⁻¹ and the association rate constant (kon) came to 164000 M⁻¹ s⁻¹. Further, in [6], the t½ amounted to 50 min.

B2: H4H16943P (antibody, human IgG4, V domains shown)
VH: B1 VH
VL: B1 VL
notes: human IgG4 Fc (H4H prefix)
In the case of B2, in [7], the binding result is “no binding (tested: 50 µg/mL)”.

B3: H4H17001P (antibody, human IgG4, V domains shown)
VH: QVQLVESGGGLVKPGGSLRLSCAASGFTFSDYYMNWIRQAPGKGLEWISLISSSGSAIYYSDSVKGRFTISRDNARKSLYLQVNSLRAEDTAVYYCARDRGEWALGAYYYGLDVWGQGTTVTVSS
VL: DIVMTQSPLSLPVTPGEPASISCRSSQSLLHSDGYNYLDWYLQKSGQSPQLLIYLGSNRASGVPDRFSGSGSGTDFTLKISRMEAEDVGVYYCMQALQTPYTFGQGTKLEIK
Take B3: in assay [1], the binding result is “no binding (tested: 50 µg/mL)”. Also, the binding result in [8] was “no binding (tested: 100 nM)”. The binding result in assay [3] is on record as “no binding (tested: 100 nM)”. Also, the binding result in assay [4] is reported as “no binding (tested: 100 nM)”. In [5], the “100 nM natural Bet v 1 Bound (RU)” value came to 87 RU, binding was put at a Kd of 2.52 nM, the koff came to 0.00122 s⁻¹ and the kon was determined as 485000 M⁻¹ s⁻¹. Moreover, the t½ in assay [5] was 9.5 min. In [6], the “100 nM natural Bet v 1 Bound (RU)” value was 71 RU, the Kd turned out to be 1 nM, the dissociation rate constant (koff) turned out to be 0.000329 s⁻¹ and the kon worked out at 329000 M⁻¹ s⁻¹. This molecule gave a t½ in assay [6] of 35 min.

B4: H4H17001P (antibody, human IgG4, V domains shown)
VH: B3 VH
VL: B3 VL
notes: human IgG4 Fc (H4H prefix)
With B4, the binding result in assay [7] was “no binding (tested: 50 µg/mL)”.

B5: H4H17082P2 (antibody, human IgG4 S228P, kappa, V domains shown)
VH: QVQLVQSGAEVKKPGASVKVSCKASGYTFISYNIFWVRQATGQGLDWMGWMNPFRNNAGYAQKFQGRVTVTWDTSISTAYMELSSLSSEDTAIYYCAREHGSSWGFFDYWGQGTLVTVSS
VL: not shown
notes: human IgG4; also called REGN5715; MAB2
In the case of B5, in assay [5], the “100 nM natural Bet v 1 Bound (RU)” value was determined as 83 RU, the dissociation constant Kd is 2.43 nM and the t½ is 6.3 min. For the same molecule, in assay [9], the “blockade of basophil activation (phospho-Erk MFI in basophils of PBMCs of birch allergic donors, 100 pM natural Bet v 1)” value came to 70%. Further, in assay [6], the “100 nM natural Bet v 1 Bound (RU)” value amounted to 72 RU and the Kd amounted to 1.09 nM.

B6: H4H17082P2 (antibody, human IgG4 S228P, kappa, V domains shown)
VH: B5 VH
VL: not shown
notes: fully human, human IgG4 Fc (H4H prefix); also called MAB2; REGN5715
As for B6, the “Percent Blocking (at 1 µg/mL each antibody)” value in assay [10] was 49%; in [11], 56.4%; in assay [12] it was 66%; in assay [13], 38%; in [14], 51%; in assay [15] it was 79%. The “Percent Blocking (at 1 µg/mL each antibody)” value in [16] was 81%; in assay [17] it was 82.9%; in assay [18], 82.7%; in assay [19] it was 74%; in assay [20], 52%.
